Data: patent US20200079833A1 (AstraZeneca / MedImmune, published 2020)
Starred links: 1 amine or outer side, 2 acyl side, 3 side chain; linkers in the order of their positions; H or OH if unused. Non-standard residues stand in square brackets, D forms with d. Groups on a side chain read outwards from the residue. No end group written: not given here. *: point of attachment. γGlu = O=C(O)[C@H](CCC(=O)[*:2])N[*:1]; Stearoyl = CCCCCCCCCCCCCCCCCC(=O)*; αMeF = C[C@](N)(Cc1ccccc1)C(=O)O; αMeK = C[C@](N)(CCCCN)C(=O)O; αMeS = C[C@](N)(CO)C(=O)O; Aib = CC(C)(N)C(=O)O

T1: glucose-dependent insulinotropic peptide (gastric inhibitory polypeptide) receptor (GIPR) (human, UniProt P48546 22-466)
T1 sequence (looked up): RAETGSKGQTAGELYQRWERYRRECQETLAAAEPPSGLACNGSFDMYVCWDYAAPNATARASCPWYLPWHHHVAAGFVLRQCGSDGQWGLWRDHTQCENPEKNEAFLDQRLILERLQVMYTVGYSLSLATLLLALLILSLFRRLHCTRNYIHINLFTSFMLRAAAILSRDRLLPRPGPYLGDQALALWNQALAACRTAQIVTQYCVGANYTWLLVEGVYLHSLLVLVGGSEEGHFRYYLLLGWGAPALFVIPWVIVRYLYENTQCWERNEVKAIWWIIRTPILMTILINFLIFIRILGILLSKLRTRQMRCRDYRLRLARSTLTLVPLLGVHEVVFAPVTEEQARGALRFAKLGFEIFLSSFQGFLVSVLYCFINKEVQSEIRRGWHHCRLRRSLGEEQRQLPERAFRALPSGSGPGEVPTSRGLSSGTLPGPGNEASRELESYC


Key:
Test in all cases: cell-based or functional assay
[1] = target: T1, glucose-dependent insulinotropic …
[2] = target: GLP-1 receptor (GLP-1R) (human, UniProt P43220 24-463)
[3] = target: glucagon receptor (GCGR) (human, UniProt P47871 26-477)
Sequence of glucagon receptor (GCGR) (P47871 26-477): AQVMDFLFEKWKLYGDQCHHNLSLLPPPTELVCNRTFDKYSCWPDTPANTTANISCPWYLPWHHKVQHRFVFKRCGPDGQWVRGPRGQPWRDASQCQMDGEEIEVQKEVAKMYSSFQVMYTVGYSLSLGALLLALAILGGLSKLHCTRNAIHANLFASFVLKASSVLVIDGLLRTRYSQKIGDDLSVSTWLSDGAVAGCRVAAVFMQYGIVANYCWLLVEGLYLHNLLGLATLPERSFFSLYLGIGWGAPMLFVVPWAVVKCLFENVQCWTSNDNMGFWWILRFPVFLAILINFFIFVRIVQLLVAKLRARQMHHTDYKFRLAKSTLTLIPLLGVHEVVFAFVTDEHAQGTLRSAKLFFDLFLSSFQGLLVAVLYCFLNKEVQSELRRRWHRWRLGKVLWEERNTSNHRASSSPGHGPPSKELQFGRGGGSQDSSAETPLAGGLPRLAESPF

Row | Binder | Primary assay EC50 (cAMP), GIP-R, first run [1] [nM] | Primary assay EC50 (cAMP), GIP-R, second run [1] [nM] | Primary assay EC50 (cAMP), GLP-1R n1 [2] [nM] | Primary assay EC50 (cAMP), GLP-1R n2 [2] [nM] | Primary assay EC50 (cAMP), Mean pM GLP-1R [2] [pM] | Primary assay EC50 (cAMP), Gluc-R, first run [3] [nM] | Primary assay EC50 (cAMP), Gluc-R, second run [3] [nM]
1 | H[Aib]EGS[αMeF]TSDV[αMeS]S[αMeF]LEGEAA[αMeK]E[αMeF]IA[αMeF]VVK([γGlu-Stearoyl])GG-NH2 (N-terminus assumed; SMILES CCCCCCCCCCCCCCCCCC(=O)N[C@@H](CCC(=O)NCCCC[C@H](NC(=O)[C@@H](NC(=O)[C@@H](NC(=O)[C@](C)(Cc1ccccc1)NC(=O)[C@H](C)NC(=O)[C@@H](NC(=O)[C@](C)(Cc1ccccc1)NC(=O)[C@H](CCC(=O)O)NC(=O)[C@](C)(CCCCN)NC(=O)[C@H](C)NC(=O)[C@H](C)NC(=O)[C@H](CCC(=O)O)NC(=O)CNC(=O)[C@H](CCC(=O)O)NC(=O)[C@H](CC(C)C)NC(=O)[C@](C)(Cc1ccccc1)NC(=O)[C@H](CO)NC(=O)[C@](C)(CO)NC(=O)[C@@H](NC(=O)[C@H](CC(=O)O)NC(=O)[C@H](CO)NC(=O)[C@@H](NC(=O)[C@](C)(Cc1ccccc1)NC(=O)[C@H](CO)NC(=O)CNC(=O)[C@H](CCC(=O)O)NC(=O)C(C)(C)NC(=O)[C@@H](N)Cc1c[nH]cn1)[C@@H](C)O)C(C)C)[C@@H](C)CC)C(C)C)C(C)C)C(=O)NCC(=O)NCC(N)=O)C(=O)O) [SEQ ID NO 191] | 28 | 28 | 0.25 | 0.11 | 182 | 28 | 28
2 | H[Aib]EGS[αMeF]TSDV[αMeS]S[αMeF]LEGEAA[αMeK]E[αMeF]IA[αMeF]VVK([γGlu-γGlu-Stearoyl])GG-NH2 (N-terminus assumed; SMILES CCCCCCCCCCCCCCCCCC(=O)N[C@@H](CCC(=O)N[C@@H](CCC(=O)NCCCC[C@H](NC(=O)[C@@H](NC(=O)[C@@H](NC(=O)[C@](C)(Cc1ccccc1)NC(=O)[C@H](C)NC(=O)[C@@H](NC(=O)[C@](C)(Cc1ccccc1)NC(=O)[C@H](CCC(=O)O)NC(=O)[C@](C)(CCCCN)NC(=O)[C@H](C)NC(=O)[C@H](C)NC(=O)[C@H](CCC(=O)O)NC(=O)CNC(=O)[C@H](CCC(=O)O)NC(=O)[C@H](CC(C)C)NC(=O)[C@](C)(Cc1ccccc1)NC(=O)[C@H](CO)NC(=O)[C@](C)(CO)NC(=O)[C@@H](NC(=O)[C@H](CC(=O)O)NC(=O)[C@H](CO)NC(=O)[C@@H](NC(=O)[C@](C)(Cc1ccccc1)NC(=O)[C@H](CO)NC(=O)CNC(=O)[C@H](CCC(=O)O)NC(=O)C(C)(C)NC(=O)[C@@H](N)Cc1c[nH]cn1)[C@@H](C)O)C(C)C)[C@@H](C)CC)C(C)C)C(C)C)C(=O)NCC(=O)NCC(N)=O)C(=O)O)C(=O)O) [SEQ ID NO 192] | 27 | 27 | 0.17 | 0.06 | 114 | 27 | 27
